Measured values taken from patent US20110305634A1.
Where two headings read alike, the source gives them in different places.

Columns and labels:
[1] = molecular target: Desmoglein 2 (DSG2) of human cells (human) (UniProt Q14126); assay: competition of 3H-Ad3 attachment to HeLa cells after pre-incubation with the named protein; the number is the Ad3 still bound (PBS: 512)
[2] = molecular target: Recombinant human DSG2 protein (desmoglein 2) (human) (UniProt Q14126); assay: SPR, DSG2 immobilized; summary table of FIG. 13B
Sequence of Recombinant human DSG2 protein (desmoglein 2) (human) (Q14126 50-609 limits assumed): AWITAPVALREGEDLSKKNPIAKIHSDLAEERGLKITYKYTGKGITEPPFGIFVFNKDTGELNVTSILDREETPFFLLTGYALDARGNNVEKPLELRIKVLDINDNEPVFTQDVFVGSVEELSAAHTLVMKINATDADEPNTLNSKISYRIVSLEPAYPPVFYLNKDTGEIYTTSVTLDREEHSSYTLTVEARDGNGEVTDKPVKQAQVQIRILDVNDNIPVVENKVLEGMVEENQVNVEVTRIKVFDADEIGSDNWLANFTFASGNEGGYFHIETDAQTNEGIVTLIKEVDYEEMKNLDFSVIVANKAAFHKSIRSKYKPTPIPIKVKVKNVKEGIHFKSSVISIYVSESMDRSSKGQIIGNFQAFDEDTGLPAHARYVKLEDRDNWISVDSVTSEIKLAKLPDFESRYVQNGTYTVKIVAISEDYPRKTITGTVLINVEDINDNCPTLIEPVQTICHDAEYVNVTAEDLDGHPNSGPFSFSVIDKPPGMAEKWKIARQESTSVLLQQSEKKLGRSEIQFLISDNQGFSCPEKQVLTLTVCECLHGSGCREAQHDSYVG

[3] = molecular target: Recombinant human DSG2 protein (desmoglein 2) (human) (UniProt Q14126); assay: SPR, DSG2 immobilised, Ad3-K/S/Kn injected at 10 mg/ml (so in the source)
[4] = molecular target: Recombinant human DSG2 protein (desmoglein 2) (human) (UniProt Q14126); assay: SPR, DSG2 immobilized; summary table of FIG. 13B (no unit in the table, RU from the axis of 13B)
[5] = molecular target: Desmoglein 2 (DSG2) of human cells (human) (UniProt Q14126)
[6] = molecular target: Desmoglein 2 (DSG2) of human cells (human) (UniProt Q14126); assay: cell-based or functional assay
[7] = molecular target: Recombinant human DSG2 protein (desmoglein 2) (human) (UniProt Q14126); assay: SPR (BIAcore 3000), recombinant human DSG2 immobilised on CM4 chip, PtDd injected
[8] = molecular target: Recombinant human DSG2 protein (desmoglein 2) (human) (UniProt Q14126); assay: SPR, DSG2 immobilised, PtDd injected at 3 mg/ml (so in the source)
[9] = molecular target: Desmoglein 2 (DSG2) of human cells (human) (UniProt Q14126); remark: listed apart in the source
[10] = molecular target: Desmoglein 2 (DSG2) of human cells (human) (UniProt Q14126); remark: listed apart in the source
[11] = molecular target: Desmoglein 2 (DSG2) of human cells (human) (UniProt Q14126); remark: listed apart in the source
[12] = molecular target: Ad5/3L-GFP chimeric adenovirus vector (human adenovirus serotype 5; human adenovirus serotype 3) (UniProt P11818)

Sequence of Desmoglein 2 (DSG2) of human cells (human) (Q14126 50-1118): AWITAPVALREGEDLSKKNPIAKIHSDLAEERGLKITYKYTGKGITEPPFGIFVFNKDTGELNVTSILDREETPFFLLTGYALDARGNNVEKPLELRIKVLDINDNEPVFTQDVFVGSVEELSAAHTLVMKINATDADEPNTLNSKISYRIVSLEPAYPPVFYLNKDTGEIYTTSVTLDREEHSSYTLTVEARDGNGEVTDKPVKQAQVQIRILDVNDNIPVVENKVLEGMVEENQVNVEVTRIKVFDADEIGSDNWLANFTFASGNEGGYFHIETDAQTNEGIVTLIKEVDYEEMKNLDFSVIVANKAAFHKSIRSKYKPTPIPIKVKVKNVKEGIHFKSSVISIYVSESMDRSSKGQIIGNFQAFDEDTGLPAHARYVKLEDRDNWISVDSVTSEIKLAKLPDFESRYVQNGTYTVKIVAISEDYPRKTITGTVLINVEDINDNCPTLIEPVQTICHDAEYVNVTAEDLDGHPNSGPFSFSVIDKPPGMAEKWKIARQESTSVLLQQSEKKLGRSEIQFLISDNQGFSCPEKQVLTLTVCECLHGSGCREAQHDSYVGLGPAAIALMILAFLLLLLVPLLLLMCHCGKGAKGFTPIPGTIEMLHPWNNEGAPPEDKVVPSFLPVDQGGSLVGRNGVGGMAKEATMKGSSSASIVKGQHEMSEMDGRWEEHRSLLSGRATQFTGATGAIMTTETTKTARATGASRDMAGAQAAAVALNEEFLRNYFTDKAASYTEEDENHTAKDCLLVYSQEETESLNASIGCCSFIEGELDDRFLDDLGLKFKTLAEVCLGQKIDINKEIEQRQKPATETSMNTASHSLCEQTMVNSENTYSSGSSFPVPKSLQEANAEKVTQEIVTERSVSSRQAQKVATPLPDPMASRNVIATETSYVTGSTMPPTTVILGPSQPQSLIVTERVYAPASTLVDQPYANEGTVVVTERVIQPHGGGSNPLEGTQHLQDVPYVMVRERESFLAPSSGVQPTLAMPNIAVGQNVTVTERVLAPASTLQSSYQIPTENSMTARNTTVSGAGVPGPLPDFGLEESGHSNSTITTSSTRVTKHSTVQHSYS
Sequence of Recombinant human DSG2 protein (desmoglein 2) (Q14126 50-609 limits assumed): as the sequence (Q14126 50-609 limits assumed) above

Recombinant Ad3 base dodecahedra (BsDd) showed a Bound 3H-Ad3 VP/cell (with this competitor) [1] of 556 VP/cell.
In the case of “Ad3-K/S/Kn, junction opener 1 (JO-1) (ligand; other documents disagree on this pair)”, the % of remaining binding after 150s [2] is reported as 85.9%, the SPR response [3] is reported as 100 RU and the Binding at the end of association [4] is reported as 113 RU. The Remaining binding after 150s dissociation [4] was 96.9 RU.
“Recombinant Ad3 penton-dodecahedra (PtDd)” gave an IC50 (read off the curve), Ad3-GFP infection of HeLa cells (% of GFP+ cells) [5] of 0.7 µg/mL, a Herceptin cytotoxicity on BT474 cells (WST-1 viability) [6] of 2 fold and a Kd [7] of 2.5 nM. For the same substance, the SPR response [8] was 100 RU, the IC50 (read off the curve), Ad3-GFP transduction of HeLa cells (GFP MFI) [9] was 0.2 µg/mL and the IC50 (read off the curve), Ad5/3L-GFP transduction of HeLa cells (GFP MFI) [9] was 0.5 µg/mL. It also gave an IC50 (read off the curve), Ad5/3S-GFP transduction of HeLa cells (GFP MFI) [9] of 0.2 µg/mL, a Bound 3H-Ad3 VP/cell (with this competitor) [1] of 12 VP/cell and an IC50 (read off the curve), Ad3-GFP transduction of HeLa cells (% of GFP+ cells) [10] of 2 µg/mL. The % of remaining binding after 150s [2] was 98%, the IC50 (read off the curve), Ad3-GFP transduction of HeLa cells (% of GFP+ cells) [11] was 1 µg/mL and the Binding at the end of association [4] was 133 RU. It also gave a Remaining binding after 150s dissociation [4] of 130 RU.
With “Recombinant human DSG2 protein (desmoglein 2) (from UniProt Q14126 50-609) (receptor)” the IC50 (read off the curve), Ad5/3L-GFP transduction of HeLa cells (GFP MFI) [12] was 1 µg/mL.
